Substrate: OC[C@@H](O)[C@H](O)[C@@H](O)CO
Experiment: cells, lysate or membranes
Details: proton symport, membrane voltage -40 mV, external pH 5.5

B1: BvPMT5a (Beta vulgaris subsp. vulgaris) (protein)
chain: MSEGTNKAMSDPPPTTASKVIADFDPLKKPPKRNKFAFACATLASMTSVLLGYDIGVMSGAIIYLKEDWHISDTQIGVLVGILNIYCLFGSFAAGRTSDWIGRRYTIVLAGAIFFVGALLMGFATNYAFLMVGRFVTGIGVGYALMIAPVYTAEVSPASSRGFLTSFPEVFINAGILLGYISNLAFSSLPTHLSWRFMLGIGAIPSIFLAIGVLAMPESPRWLVMQGRLGDAKKVLNRISDSPEEAQLRLSEIKQTAGIPAECDEDIYKVEKTKIKSGNAVWKELFFNPTPAVRRAVIAGIGIHFFQQASGIDAVVLYSPRIFQSAGITNARKQLLATVAVGVVKTLFILVATFQLDKYGRRPLLLTSVGGMIIAILTLAMSLTVIDHSHHKITWAIALCITMVCAVVASFSIGLGPITWVYSSEVFPLRLRAQGTSMGVAVNRVVSGVISIFFLPLSHKITTGGAFFLFGGIAIIAWFFFLTFLPETRGRTLENMHELFEDFRWRESFPGNKSNNDENSTRKQSNGNDKSQVQLGETTTSTTVTNDNH
Km: 2500 µM
